Sequences and labels used below:
T1: Factor VIIIa (FVIIIa), from recombinant FVIII (Kogenate FS; Bayer healthcare) activated with alpha-thrombin (UniProt P00451 20-2351)
T1 sequence (looked up): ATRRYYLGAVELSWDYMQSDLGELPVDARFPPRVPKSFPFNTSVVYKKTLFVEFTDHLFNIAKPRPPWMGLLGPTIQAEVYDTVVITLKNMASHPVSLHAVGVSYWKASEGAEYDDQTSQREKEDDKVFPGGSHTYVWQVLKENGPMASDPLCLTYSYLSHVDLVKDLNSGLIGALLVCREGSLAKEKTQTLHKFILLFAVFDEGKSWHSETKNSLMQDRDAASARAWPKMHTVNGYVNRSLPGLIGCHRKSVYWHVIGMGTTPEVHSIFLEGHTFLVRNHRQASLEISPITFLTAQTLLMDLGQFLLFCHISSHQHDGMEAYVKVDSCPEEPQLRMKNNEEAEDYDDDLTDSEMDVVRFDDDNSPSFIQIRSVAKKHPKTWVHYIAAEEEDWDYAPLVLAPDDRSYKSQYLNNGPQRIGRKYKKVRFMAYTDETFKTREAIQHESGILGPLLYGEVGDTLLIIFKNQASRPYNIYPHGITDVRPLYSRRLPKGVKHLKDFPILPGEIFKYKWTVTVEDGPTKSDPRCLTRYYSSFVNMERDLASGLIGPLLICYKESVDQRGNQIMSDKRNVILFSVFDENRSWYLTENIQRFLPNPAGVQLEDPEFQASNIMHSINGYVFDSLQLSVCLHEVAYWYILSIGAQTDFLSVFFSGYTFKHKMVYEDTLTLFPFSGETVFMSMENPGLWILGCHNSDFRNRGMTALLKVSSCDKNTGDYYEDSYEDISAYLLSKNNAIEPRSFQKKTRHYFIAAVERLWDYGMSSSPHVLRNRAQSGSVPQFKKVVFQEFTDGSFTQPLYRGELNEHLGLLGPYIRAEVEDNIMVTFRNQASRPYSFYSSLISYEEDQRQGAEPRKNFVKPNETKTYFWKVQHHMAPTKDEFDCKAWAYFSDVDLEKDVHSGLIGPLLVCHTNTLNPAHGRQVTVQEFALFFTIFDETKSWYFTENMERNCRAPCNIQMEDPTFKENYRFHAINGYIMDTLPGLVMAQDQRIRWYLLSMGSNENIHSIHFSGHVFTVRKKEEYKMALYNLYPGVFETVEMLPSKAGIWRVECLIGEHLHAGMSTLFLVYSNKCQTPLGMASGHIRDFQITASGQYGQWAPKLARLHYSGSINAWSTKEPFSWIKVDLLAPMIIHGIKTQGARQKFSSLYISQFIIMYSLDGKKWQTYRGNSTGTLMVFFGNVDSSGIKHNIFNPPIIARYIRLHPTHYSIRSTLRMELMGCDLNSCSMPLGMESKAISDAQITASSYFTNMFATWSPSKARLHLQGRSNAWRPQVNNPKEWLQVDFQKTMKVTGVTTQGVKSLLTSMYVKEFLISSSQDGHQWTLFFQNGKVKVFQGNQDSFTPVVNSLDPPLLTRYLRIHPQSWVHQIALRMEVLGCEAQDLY

T2: Factor VIIIa (recombinant FVIII, Kogenate FS, activated with alpha-thrombin) (UniProt P00451 20-2351)
T2 construct: also called FVIIIa
T2 sequence (looked up): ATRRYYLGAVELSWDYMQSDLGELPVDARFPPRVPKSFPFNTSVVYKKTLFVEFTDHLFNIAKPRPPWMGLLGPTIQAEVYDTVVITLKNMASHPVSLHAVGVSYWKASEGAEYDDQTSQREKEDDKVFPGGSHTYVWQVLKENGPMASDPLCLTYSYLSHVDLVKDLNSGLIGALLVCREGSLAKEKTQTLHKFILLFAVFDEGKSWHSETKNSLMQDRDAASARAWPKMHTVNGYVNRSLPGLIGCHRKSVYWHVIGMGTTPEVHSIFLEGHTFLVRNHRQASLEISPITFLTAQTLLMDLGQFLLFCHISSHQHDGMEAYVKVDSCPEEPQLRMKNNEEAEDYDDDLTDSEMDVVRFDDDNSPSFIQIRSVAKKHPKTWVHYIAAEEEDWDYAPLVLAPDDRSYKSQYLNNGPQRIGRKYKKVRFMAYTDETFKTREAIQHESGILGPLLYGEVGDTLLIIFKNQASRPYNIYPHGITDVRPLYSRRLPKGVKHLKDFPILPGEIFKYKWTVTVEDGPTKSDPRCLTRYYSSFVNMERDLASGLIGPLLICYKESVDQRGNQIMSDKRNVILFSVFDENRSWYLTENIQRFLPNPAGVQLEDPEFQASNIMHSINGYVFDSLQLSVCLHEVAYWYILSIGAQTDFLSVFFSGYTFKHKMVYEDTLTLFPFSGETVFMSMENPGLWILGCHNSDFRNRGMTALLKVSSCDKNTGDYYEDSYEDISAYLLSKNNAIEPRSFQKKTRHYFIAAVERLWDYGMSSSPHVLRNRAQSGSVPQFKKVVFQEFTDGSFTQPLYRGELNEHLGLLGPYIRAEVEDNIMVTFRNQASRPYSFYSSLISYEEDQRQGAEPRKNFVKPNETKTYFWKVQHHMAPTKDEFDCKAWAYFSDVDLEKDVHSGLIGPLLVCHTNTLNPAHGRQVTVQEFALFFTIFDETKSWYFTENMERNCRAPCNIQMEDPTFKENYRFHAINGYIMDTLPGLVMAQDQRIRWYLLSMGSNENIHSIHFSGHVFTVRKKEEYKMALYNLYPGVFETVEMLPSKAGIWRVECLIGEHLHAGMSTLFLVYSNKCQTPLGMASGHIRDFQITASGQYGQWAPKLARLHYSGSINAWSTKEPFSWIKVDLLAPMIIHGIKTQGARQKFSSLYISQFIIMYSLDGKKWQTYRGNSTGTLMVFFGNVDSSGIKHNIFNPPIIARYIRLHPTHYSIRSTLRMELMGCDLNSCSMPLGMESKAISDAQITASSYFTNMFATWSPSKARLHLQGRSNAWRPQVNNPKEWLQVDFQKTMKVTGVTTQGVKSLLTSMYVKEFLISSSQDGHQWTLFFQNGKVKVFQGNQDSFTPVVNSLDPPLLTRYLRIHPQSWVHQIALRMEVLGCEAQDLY

B1: FIXa variant A103N/N105S/K247N/N249S/R318Y/R338E/R403E/E410N (enzyme)
light: YNSGKLEEFVQGNLERECMEEKCSFEEAREVFENTERTTEFWKQYVDGDQCESNPCLNGGSCKDDINSYECWCPFGFEGKNCELDVTCNIKNGRCEQFCKNSNDSKVVCSCTEGYRLAENQKSCEPAVPFPCGRVSVSQTSKLTR
heavy: VVGGEDAKPGQFPWQVVLNGKVDAFCGGSIVNEKWIVTAAHCVETGVKITVVAGEHNIEETEHTEQNRSVIRIIPHHNYNAAINKYNHDIALLELDEPLVLNSYVTPICIADKEYTNIFLKFGSGYVSGWGRVFHKGYSALVLQYLRVPLVDRATCLESTKFTIYNNMFCAGFHEGGRDSCQGDSGGPHVTEVEGTSFLTGIISWGEECAMKGKYGIYTKVSEYVNWIKNKTKLT
B2: FIXa variant D104N/K106S/I251S/R318Y/R338E/E410N (enzyme)
light: YNSGKLEEFVQGNLERECMEEKCSFEEAREVFENTERTTEFWKQYVDGDQCESNPCLNGGSCKDDINSYECWCPFGFEGKNCELDVTCNIKNGRCEQFCKNSANNSVVCSCTEGYRLAENQKSCEPAVPFPCGRVSVSQTSKLTR
heavy: VVGGEDAKPGQFPWQVVLNGKVDAFCGGSIVNEKWIVTAAHCVETGVKITVVAGEHNIEETEHTEQKRNVSRIIPHHNYNAAINKYNHDIALLELDEPLVLNSYVTPICIADKEYTNIFLKFGSGYVSGWGRVFHKGYSALVLQYLRVPLVDRATCLESTKFTIYNNMFCAGFHEGGRDSCQGDSGGPHVTEVEGTSFLTGIISWGEECAMKGKYGIYTKVSRYVNWIKNKTKLT
B3: FIXa-Y155F/R318Y/R338E/T343R/E410N (enzyme)
chain 1: YNSGKLEEFVQGNLERECMEEKCSFEEAREVFENTERTTEFWKQYVDGDQCESNPCLNGGSCKDDINSYECWCPFGFEGKNCELDVTCNIKNGRCEQFCKNSADNKVVCSCTEGYRLAENQKSCEPAVPFPCGRVSVSQTSKLTR
chain 2: VVGGEDAKPGQFPWQVVLNGKVDAFCGGSIVNEKWIVTAAHCVETGVKITVVAGEHNIEETEHTEQKRNVIRIIPHHNYNAAINKYNHDIALLELDEPLVLNSYVTPICIADKEYTNIFLKFGSGYVSGWGRVFHKGYSALVLQYLRVPLVDRATCLESTKFRIYNNMFCAGFHEGGRDSCQGDSGGPHVTEVEGTSFLTGIISWGEECAMKGKYGIYTKVSRYVNWIKNKTKLT
B4: FIXa-Y155F/K247N/N249S/R318Y/R338E/T343R (enzyme)
chain 1: YNSGKLEEFVQGNLERECMEEKCSFEEAREVFENTERTTEFWKQYVDGDQCESNPCLNGGSCKDDINSYECWCPFGFEGKNCELDVTCNIKNGRCEQFCKNSADNKVVCSCTEGYRLAENQKSCEPAVPFPCGRVSVSQTSKLTR
chain 2: VVGGEDAKPGQFPWQVVLNGKVDAFCGGSIVNEKWIVTAAHCVETGVKITVVAGEHNIEETEHTEQNRSVIRIIPHHNYNAAINKYNHDIALLELDEPLVLNSYVTPICIADKEYTNIFLKFGSGYVSGWGRVFHKGYSALVLQYLRVPLVDRATCLESTKFRIYNNMFCAGFHEGGRDSCQGDSGGPHVTEVEGTSFLTGIISWGEECAMKGKYGIYTKVSRYVNWIKEKTKLT
B5: FIXa-Y155F/R318Y/R338E/T343R (enzyme)
chain 1: YNSGKLEEFVQGNLERECMEEKCSFEEAREVFENTERTTEFWKQYVDGDQCESNPCLNGGSCKDDINSYECWCPFGFEGKNCELDVTCNIKNGRCEQFCKNSADNKVVCSCTEGYRLAENQKSCEPAVPFPCGRVSVSQTSKLTR
chain 2: VVGGEDAKPGQFPWQVVLNGKVDAFCGGSIVNEKWIVTAAHCVETGVKITVVAGEHNIEETEHTEQKRNVIRIIPHHNYNAAINKYNHDIALLELDEPLVLNSYVTPICIADKEYTNIFLKFGSGYVSGWGRVFHKGYSALVLQYLRVPLVDRATCLESTKFRIYNNMFCAGFHEGGRDSCQGDSGGPHVTEVEGTSFLTGIISWGEECAMKGKYGIYTKVSRYVNWIKEKTKLT

The first assay concerns the target T1, Factor VIIIa (FVIIIa), from recombinant …. As to the kind of experiment: ratio of KD-app of Catalyst Biosciences WT FIXa to KD-app of the variant, same Xase assay.
Text: (§1) The activity of alpha-thrombin was then quenched by the addition of a highly specific thrombin inhibitor, hirudin, prior to initiating the assay.
With B1, the KD-WT/KD-mut came to 1 fold.

In the case of B2, the KD-WT/KD-mut was determined as 7.7 fold.

The target in the next assay is T2, Factor VIIIa (recombinant FVIII, …). As to the kind of experiment: functional cofactor affinity KD-app: fluorogenic FX activation (Xase) assay, FVIIIa titrated, PC/PS vesicles, saturating FX.
Experimental: Reactions were monitored in a SpectraMax fluorescence plate reader for 30 min at 37° C. A standard curve of free AMC served as the conversion factor for RFU to μM in the subsequent data analysis calculations using a dose range that covered 0 μM to 100 μM AMC.
In the case of B3, the Kd is 7.4 nM.

With B4, the Kd was determined as 14 nM.

As for B5, the Kd came out at 8.4 nM.

The target of the next assay is T1, Factor VIIIa (FVIIIa), from recombinant …. Description: apparent functional KD (KD-app): FX activation rate vs FVIIIa titration, fluorogenic Xase assay with PC/PS vesicles and Ca2+.
Text: as §1
Turning to B1, the Kd is 93.1 nM.

Take B2: the Kd stood at 12.4 nM.

Source of the values: patent US20210238260A1 (published 2021).
